Patent US20130252282A1
Blank lines part the entries; values can stand above or below the substance they belong to.

How the values were obtained:
[1] = biological target: Dronpa145N (Pectimidae genus coral); experiment: inferred from native PAGE of 100 µM protein after cyan (about 500 nm) illumination; self-association, off-photoswitched state
[2] = biological target: Cdc42 (UniProt P60766); experiment: cell-based or functional assay
Sequence of UniProt P60766 (P60766 1-188 limits assumed): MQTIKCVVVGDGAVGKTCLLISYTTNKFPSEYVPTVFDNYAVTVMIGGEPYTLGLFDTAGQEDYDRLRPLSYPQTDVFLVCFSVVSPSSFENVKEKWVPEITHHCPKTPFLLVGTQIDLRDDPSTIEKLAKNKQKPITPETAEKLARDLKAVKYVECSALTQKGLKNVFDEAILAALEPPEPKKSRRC

- Kd [1]: > 100 µM
Substance: Dronpa145N

- cells forming abundant filopodia within 30 minutes after 490/20-nm light for 30 seconds [2]: 78%
- cells forming filopodia in the same time interval without illumination [2]: 10%
Substance: N-I-N-CAAX (Dronpa145N-intersectin DH domain-Dronpa145N-CAAX) (from UniProt Q15811 1234-1428) (enzyme)

- basal filopodia or lamellipodia in low expressers [2]: 0%
Substance: N-I-N-CAAX (Dronpa145N-intersectin DH domain-Dronpa145N-CAAX) (from UniProt Q15811 1234-1428)

- basal filopodia or lamellipodia in low expressers [2]: 8%
- cells forming abundant filopodia within 30 minutes after illumination [2]: 90%
- cells forming filopodia, not exposed to light [2]: 25%
Substance: K-I-N-CAAX (Dronpa145K-intersectin DH domain-Dronpa145N-CAAX) (from UniProt Q15811 1234-1428) (enzyme)
